± gives the standard deviation.

The source of these data is the supplement of paper PMC10567573.

This data set can be described thus: protein stability index of a GFP-peptide fusion (GPS, HEK-293T) (PSI 1-6); higher = more stable. As to conditions: c terminus: a fixed tail appended.
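Note: 24-mer peptide tiles fused after GFP, lentivirally expressed, FACS-sorted into six equal bins by GFP/DsRed ratio, decoded by Illumina sequencing, PSI is the read-weighted mean bin number.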

As for YSALSCTSDASFHPAFLPQRQAIK [KCNG1], the protein stability index stood at 2.78 ± 0.23 (treatment: DMSO) and 3.18 ± 0.19 (treatment: MLN4924 1 uM, 8 h).

Consider YSHRETVNGSWYIQDLCEMLGKYG [CASP6], for which the protein stability index amounted to 1.93 ± 0.39 (treatment: DMSO) and 2.1 ± 0.35 (treatment: MLN4924 1 uM, 8 h).

On to YSHSSTRDGRRDRYSSDTTPLLNG [GOSR1], for which the protein stability index by setting is: (treatment: DMSO) 4.28 ± 0.4; (treatment: MLN4924 1 uM, 8 h) 4.31 ± 0.11.

On to YSIDQEFLKEYFPIEVVTEGLLNT [NLN], for which the protein stability index runs as follows: (treatment: DMSO) 2.79 ± 0.24; (treatment: MLN4924 1 uM, 8 h) 3.19 ± 0.53.

Consider YSRRLQVQERLTKQIAVAITEALR [GCH1], for which the protein stability index by setting is: (treatment: DMSO) 2.34 ± 0.47; (treatment: MLN4924 1 uM, 8 h) 2.19 ± 0.38.

Regarding YTSGTTGIPKGVMLSHDNITWIAG [ACSBG2], the protein stability index came out at 2.37 ± 0.36 (treatment: DMSO) and 2.21 ± 0.31 (treatment: MLN4924 1 uM, 8 h).

On to YWRYDEYKRSMDPGYPKMIAHDFP [MMP1], for which the protein stability index by setting is: (treatment: DMSO) 2.29 ± 0.22; (treatment: MLN4924 1 uM, 8 h) 2.18 ± 0.49.

With YYAKRNALRAAEVWMDDFKSHVYM [GALNT9], the protein stability index reads like this: (treatment: DMSO) 2.24 ± 0.44; (treatment: MLN4924 1 uM, 8 h) 2.12 ± 0.26.

Turning to YYIRYRGAVYADSGNFERCIRLWK [FEM1A], the protein stability index reads like this: (treatment: DMSO) 2.59 ± 0.35; (treatment: MLN4924 1 uM, 8 h) 2.5 ± 0.57.
